Data as given in the Immune Epitope Database (IEDB).

What was measured:
HLA-B*58:01 [1] = assay: IEDB peptide-MHC binding, purified MHC/direct/fluorescence; filed as Kd, often an IC50 or EC50 that approximates it; ≥ and ≤ were set here for values at or beyond the usual limits of such assays
HLA-B*57:01 [2] = assay: as above
HLA-B*15:17 [3] = assay: as above
HLA-B*15:03 = assay: IEDB peptide-MHC binding, purified MHC/competitive/radioactivity; filed as Kd, often an IC50 or EC50 that approximates it; ≥ and ≤ were set here for values at or beyond the usual limits of such assays
HLA-B*58:01 [4] = assay: as above
HLA-B*35:01 = assay: as above; conditions: source organism: Dengue virus 1 Singapore/S275/1990
HLA-B*53:01 = assay: as above
HLA-B*08:01 = assay: as above
HLA-A*32:01 = assay: as above
HLA-B*39:01 = assay: IEDB peptide-MHC binding, purified MHC/competitive/fluorescence; filed as Kd, often an IC50 or EC50 that approximates it; ≥ and ≤ were set here for values at or beyond the usual limits of such assays
HLA-B*27:03 = assay: as above
HLA-B*51:01 = assay: as above
HLA-A*03:01 [5] = assay: as above; conditions: source organism: Four Corners hantavirus
HLA-A*26:01 [6] = assay: as above
HLA-A*02:01 = assay: as above
HLA-B*57:01 [7] = assay: as above
HLA-B*15:17 [8] = assay: as above
HLA-A*69:01 = assay: as above
HLA-B*46:01 = assay: as above
HLA-A*02:19 = assay: IEDB peptide-MHC binding, purified MHC/direct/fluorescence; filed as Kd, often an IC50 or EC50 that approximates it; ≥ and ≤ were set here for values at or beyond the usual limits of such assays
HLA-A*02:16 = assay: as above
HLA-A*68:02 = assay: as above
HLA-A*02:03 = assay: as above
HLA-A*24:03 = assay: as above
HLA-A*02:12 = assay: as above
HLA-A*02:11 = assay: as above
HLA-B*18:01 = assay: IEDB peptide-MHC binding, purified MHC/competitive/fluorescence; filed as Kd, often an IC50 or EC50 that approximates it; ≥ and ≤ were set here for values at or beyond the usual limits of such assays
HLA-A*03:01 [9] = assay: IEDB peptide-MHC binding, purified MHC/direct/fluorescence; filed as Kd, often an IC50 or EC50 that approximates it; ≥ and ≤ were set here for values at or beyond the usual limits of such assays
HLA-A*26:01 [10] = assay: as above
HLA-B*15:01 [11] = assay: IEDB peptide-MHC binding, purified MHC/competitive/fluorescence; filed as Kd, often an IC50 or EC50 that approximates it; ≥ and ≤ were set here for values at or beyond the usual limits of such assays; conditions: source organism: Reston ebolavirus
HLA-B*15:01 [12] = assay: IEDB peptide-MHC binding, purified MHC/competitive/radioactivity; filed as Kd, often an IC50 or EC50 that approximates it; ≥ and ≤ were set here for values at or beyond the usual limits of such assays
HLA-A*30:01 = assay: as above
HLA-B*57:01 [13] = assay: as above
HLA-A*11:01 [14] = assay: as above; conditions: source organism: Dengue virus 1 Singapore/S275/1990
HLA-A*03:01 [15] = assay: as above; conditions: source organism: Dengue virus 1 Singapore/S275/1990
HLA-A*31:01 = assay: IEDB peptide-MHC binding, purified MHC/competitive/fluorescence; filed as Kd, often an IC50 or EC50 that approximates it; ≥ and ≤ were set here for values at or beyond the usual limits of such assays; conditions: source organism: Shewanella baltica OS155
HLA-A*11:01 [16] = assay: IEDB peptide-MHC binding, purified MHC/direct/fluorescence; filed as Kd, often an IC50 or EC50 that approximates it; ≥ and ≤ were set here for values at or beyond the usual limits of such assays; conditions: source organism: Escherichia coli O157:H7
[17] = source organism: Vaccinia virus WR
[18] = source organism: Listeria monocytogenes FSL N3-165
[19] = source organism: Dengue virus 1 Singapore/S275/1990
[20] = source organism: Dengue virus 4 Philippines/H241/1956
[21] = source organism: Four Corners hantavirus
[22] = source organism: Limestone Canyon virus
[23] = source organism: Orthohantavirus andesense
[24] = source organism: Reston ebolavirus
[25] = source organism: Vaccinia virus Copenhagen
[26] = source organism: Araucaria virus
[27] = source organism: Escherichia coli O157:H7
[28] = source organism: Dengue virus 1 Brazil/97-11/1997

## IARISALGF
HLA-B*58:01 [1]; source organism: Brucella suis
  Kd: 14000 nM
HLA-B*57:01 [2]; source organism: Brucella suis 1330
  Kd: 88 nM
HLA-B*15:17 [3]; source organism: Brucella suis
  Kd: 3.6 nM

## FKAMWKYPF
HLA-B*15:03; [17]
  Kd: 0.109 nM

## WTRPRYIEI
HLA-B*58:01 [1]; [18]
  Kd: 429 nM
HLA-B*57:01 [2]; [18]
  Kd: ≥ 20000 nM
HLA-B*15:17 [3]; source organism: Listeria monocytogenes
  Kd: 270 nM

## FTRCAVIPF
HLA-B*15:03; [17]
  Kd: 5.4 nM

## MASSVLLWM
HLA-B*58:01 [4]; [19]
  Kd: 0.3 nM
HLA-B*35:01
  Kd: 56.6 nM
HLA-B*53:01; [19]
  Kd: 0.61 nM

## IASLPTYLSS
HLA-B*58:01 [4]; [20]
  Kd: ≥ 36300 nM

## SMNTIKQSF
HLA-B*15:03; [17]
  Kd: 16.5 nM
HLA-B*08:01; [17]
  Kd: 0.449 µM
HLA-A*32:01; [17]
  Kd: 293 nM

## KLKKKSAFY
HLA-B*39:01; [21]
  Kd: ≥ 20 µM
HLA-B*27:03; [21]
  Kd: ≥ 20 µM
HLA-B*51:01; [21]
  Kd: ≥ 20 µM
HLA-A*03:01 [5]
  Kd: 45.1 nM
HLA-A*26:01 [6]; [21]
  Kd: ≥ 20 µM
HLA-A*02:01; [21]
  Kd: ≥ 20 µM
HLA-B*57:01 [7]; [21]
  Kd: ≥ 20 µM
HLA-B*15:17 [8]; [21]
  Kd: ≥ 20 µM
HLA-A*69:01; [21]
  Kd: ≥ 20 µM
HLA-B*46:01; [21]
  Kd: ≥ 20 µM
HLA-A*02:19; [22]
  Kd: ≥ 20 µM
HLA-A*02:16; [22]
  Kd: ≥ 20 µM
HLA-A*68:02; [22]
  Kd: ≥ 20 µM
HLA-A*02:03; [22]
  Kd: ≥ 20 µM
HLA-A*24:03; [22]
  Kd: ≥ 20000 nM
HLA-A*02:12; [22]
  Kd: ≥ 20 µM
HLA-A*02:11; [22]
  Kd: ≥ 20 µM

## AVEDFLAFF
HLA-B*39:01; [23]
  Kd: ≥ 20 µM
HLA-B*27:03; [23]
  Kd: ≥ 20 µM
HLA-B*51:01; [23]
  Kd: ≥ 20 µM
HLA-A*02:01; [23]
  Kd: ≥ 20 µM
HLA-B*57:01 [7]; [23]
  Kd: ≥ 20 µM
HLA-B*18:01; [23]
  Kd: ≥ 20 µM
HLA-A*69:01; [23]
  Kd: ≥ 20 µM
HLA-B*46:01; [23]
  Kd: ≥ 20 µM
HLA-A*02:19; [23]
  Kd: ≥ 20 µM
HLA-A*02:16; [23]
  Kd: ≥ 20 µM
HLA-A*03:01 [9]; [23]
  Kd: ≥ 20 µM
HLA-A*26:01 [10]; [23]
  Kd: 1390 nM
HLA-A*68:02; [23]
  Kd: ≥ 20 µM
HLA-A*02:03; [23]
  Kd: ≥ 20 µM
HLA-A*02:12; [23]
  Kd: ≥ 20 µM
HLA-A*02:11; [23]
  Kd: ≥ 20 µM

## IQTLNGKHF
HLA-B*15:03; [17]
  Kd: 11.4 nM

## WFQRIPLQW
HLA-B*39:01; [24]
  Kd: ≥ 20 µM
HLA-B*15:01 [11]
  Kd: ≥ 20 µM
HLA-B*27:03; [24]
  Kd: ≥ 20 µM
HLA-B*51:01; [24]
  Kd: ≥ 20 µM
HLA-A*26:01 [6]; [24]
  Kd: ≥ 20 µM
HLA-A*02:01; [24]
  Kd: ≥ 20 µM
HLA-B*57:01 [7]; [24]
  Kd: ≥ 20 µM
HLA-B*15:17 [8]; [24]
  Kd: ≥ 20 µM
HLA-B*18:01; [24]
  Kd: ≥ 20 µM
HLA-A*69:01; [24]
  Kd: ≥ 20 µM
HLA-B*46:01; [24]
  Kd: ≥ 20 µM
HLA-A*02:19; [24]
  Kd: ≥ 20 µM
HLA-A*02:16; [24]
  Kd: ≥ 20 µM
HLA-A*03:01 [9]; [24]
  Kd: ≥ 20 µM
HLA-A*68:02; [24]
  Kd: ≥ 20 µM
HLA-A*02:03; [24]
  Kd: ≥ 20 µM
HLA-A*24:03; source organism: Tai Forest virus - Cote d'Ivoire, Cote d'Ivoire, 1994
  Kd: 0.3 nM
HLA-A*02:12; [24]
  Kd: ≥ 20 µM
HLA-A*02:11; [24]
  Kd: ≥ 20 µM

## HVKSTLNNA
HLA-B*15:01 [12]; [17]
  Kd: 366 nM
HLA-B*15:03; [17]
  Kd: 376 nM
HLA-A*30:01; [17]
  Kd: 1.15 nM
HLA-B*08:01; [17]
  Kd: 1.53 µM
HLA-A*32:01; [17]
  Kd: ≥ 41700 nM

## AVFQEEQGW
HLA-B*57:01 [13]; [20]
  Kd: 34 nM

## IHFMREYWF
HLA-B*15:01 [12]; [25]
  Kd: 6910 nM
HLA-B*15:03; [25]
  Kd: 222 nM
HLA-A*30:01; [25]
  Kd: 44.9 nM
HLA-B*08:01; [25]
  Kd: 8.05 µM
HLA-A*32:01; [25]
  Kd: 12400 nM

## GVPELGAFF
HLA-B*39:01; [26]
  Kd: ≥ 20 µM
HLA-B*27:03; [26]
  Kd: ≥ 20 µM
HLA-B*51:01; [26]
  Kd: ≥ 20 µM
HLA-A*02:01; [26]
  Kd: ≥ 20 µM
HLA-B*57:01 [7]; [26]
  Kd: ≥ 20 µM
HLA-B*15:17 [8]; [26]
  Kd: ≥ 20 µM
HLA-B*18:01; [26]
  Kd: ≥ 20 µM
HLA-A*69:01; [26]
  Kd: ≥ 20 µM
HLA-B*46:01; [26]
  Kd: ≥ 20 µM
HLA-A*02:19; [26]
  Kd: ≥ 20 µM
HLA-A*02:16; [26]
  Kd: ≥ 20 µM
HLA-A*03:01 [9]; [26]
  Kd: ≥ 20 µM
HLA-A*26:01 [10]; source organism: Itapua hantavirus
  Kd: 207 nM
HLA-A*02:03; [26]
  Kd: ≥ 20 µM
HLA-A*02:12; [26]
  Kd: ≥ 20 µM
HLA-A*02:11; [26]
  Kd: ≥ 20 µM

## KLTSTETSF
HLA-B*15:03; [17]
  Kd: 25.4 nM

## AVAKYFSPL
HLA-B*15:01 [12]; [17]
  Kd: 16 nM
HLA-B*15:03; [17]
  Kd: 235 nM
HLA-A*30:01; [17]
  Kd: 8980 nM
HLA-B*08:01; [17]
  Kd: 0.189 µM
HLA-A*32:01; [17]
  Kd: 283 nM

## ASSMVNGVVK
HLA-B*58:01 [4]; [19]
  Kd: 2790 nM
HLA-A*11:01 [14]
  Kd: 30.4 nM
HLA-A*03:01 [15]
  Kd: 325 nM

## ATREGKHGK
HLA-A*31:01
  Kd: 81.3 nM
HLA-A*11:01 [16]
  Kd: 254 nM
HLA-A*03:01 [9]; [27]
  Kd: 0.301 µM

## PASAWTLYAV
HLA-B*57:01 [13]; source organism: Dengue virus 2 Jamaica/1409/1983
  Kd: 1110 nM

## LLIMGQLTW
HLA-B*58:01 [4]; [28]
  Kd: 11.1 nM
HLA-B*53:01; [28]
  Kd: 342 nM

## KSWPAAIDW
HLA-B*58:01 [1]; [27]
  Kd: 1.5 nM
HLA-B*57:01 [2]; [27]
  Kd: 32 nM
HLA-B*15:17 [3]; [27]
  Kd: 1.3 nM

## ITLTNVVNI
HLA-B*15:01 [12]; [17]
  Kd: 11.6 nM
HLA-B*15:03; [17]
  Kd: 21.8 nM
HLA-A*30:01; [17]
  Kd: 34.6 nM
HLA-B*08:01; [17]
  Kd: 4.49 µM
HLA-A*32:01; [17]
  Kd: 77.1 nM

## RQNRSQYLF
HLA-B*15:03; [25]
  Kd: 0.137 nM

## IKYACKQIL
HLA-B*15:01 [12]; [17]
  Kd: 6870 nM
HLA-B*15:03; [17]
  Kd: 252 nM
HLA-A*30:01; [17]
  Kd: 2110 nM
HLA-B*08:01; [17]
  Kd: 8.67 µM
HLA-A*32:01; [17]
  Kd: 10700 nM

## LPTNEFISF
HLA-B*15:03; [17]
  Kd: 33.7 nM

## IQRTYSSSI
HLA-B*15:03; [17]
  Kd: 0.83 nM
